Test results taken from patent publication US12522842B2, “Glutamine synthetase mutant having glufosinate resistance and application thereof and cultivation method therefor” (GEVOTO LLC, priority 2019, dated 2026).

Columns and labels:
[1] = system: glutamine synthetase-deficient Escherichia coli; assay: Growth of glutamine synthetase-deficient E. coli transformed with GS mutants in M9 medium containing glufosinate; type: cell-based; conditions: for growth of transformed GS-deficient E. coli (normal GS enzymatic activity): medium containing 0 mM glufosinate
Excerpt: According to the sequences of the nucleic acid molecules provided in Example 4, the nucleic acid sequences encoding rice GS mutants OsA, OsC, OsD, OsE, OsF, OsG, OsH, OsI, OsK, OsP, OST, OsV, and OsY were synthesized using chemical synthesis method. Restriction digestion sites (Pac1 and Sbf1) were introduced at both ends thereof, and after restriction digestion, they were linked under the action of ligase to an expression vector (such as pADV7 vector, whose structure is shown in FIG. 4) that was subjected to the same restriction digestion treatment. Then, glutamine synthetase-deficient Escherichia coli was transformed with the resultant. After verification, positive clones were picked up and inoculated in M9 medium containing different concentrations of glufosinate to grow, and the growth status of defective Escherichia coli was observed.
With wild-type rice GS (its amino acid sequence shown in SEQ ID NO. 1 and its encoding gene shown in SEQ ID NO. 4) as a negative control, the glufosinate resistance for the GS mutant OsA (S59A, wherein the amino acid S at site 59 of the rice GS is mutated into A), OsC (S59C), OsD (S59D), OsE (S59E), OsF (S59F), OsG (S59G), OsH (S59H), OsI (S591), OsK (S59K), OsP (S59P), OsT (S59T), OsV (S59V), OsY (S59Y) was detected.
With reference to the detection method of Experimental Example 1, glufosinate resistance of the rice GS mutant OsGR (S59G and H296R, the amino acid S at site 59 of rice GS is mutated into G and the amino acid H at site 296 is mutated into R), the wheat GS mutant TaGR (S59G and H296R, the amino acid S at site 59 of wheat GS is mutated into G and the amino acid H at site 296 is mutated into R), the soybean GS mutant GmGR (S59G and H296R, the amino acid S at site 59 of soybean GS is mutated into G and the amino acid H at site 296 is mutated into R) provided in Example 2 was verified.
With reference to Experimental example 1, the glufosinate resistance of rice GS mutants OA, OD, OE, OG, OI, OK, OM, OP, OQ, OR, OS, OT, and OV provided in Example 3 was detected according to the following method.
With wild-type rice GS as a negative control, the glufosinate resistance of GS mutants OA (H296A, amino acid H at site 296 of rice GS is mutated into A), OD (H296D), OE (H296E), OG (H296G), OI (H2961), OK (H296K), OM (H296M), OP (H296P), OQ (H296Q), OR (H296R), OS (H296S), OT (H296T), OV (H296V) was detected.

rice (Nipponbare) = assay: Glufosinate resistance of transgenic rice after spraying 1x field dose; type: in vivo; conditions: 1x glufosinate, 450 g/ha, day 7 after spraying
Excerpt: The glufosinate resistance resulting from the OR mutants provided in Example 3 in transgenic rice was detected according to the following method.
The nucleic acid sequence encoding OR was inserted into the pGVP1 vector (see FIG. 11) according to a conventional method to obtain the pGVP1-OR vector.
The pGVP1-OR vector was transformed into competent cells of EHA105 (Agrobacterium tumefaciens), the monoclonal was picked up for colony PCR detection, and positive strains were obtained; then the positive strains were inoculated into 1 mL YEP medium containing 50 μg·mL^−1 kanamycin and 50 μg·mL^−1 rifampicin for propagation, and stored at −80° C. or used in subsequent experiments. […]
Rice plants transformed with OR mutant gene were detected using the PCR method, forward and reverse detection primers were designed according to pGVP1-OR vector sequence and rice reference gene, the PCR amplification products were assayed by 1.5% agarose gel electrophoresis, and those with bands at 452 bp and 629 bp were transgenic plants.
The transplanted transgenic rice seedlings were evenly arranged in the same experimental area (to avoid overlapping leaves). The area of occupied regions of the experimental group and the control group was calculated. […]

[2] = biological target: rice GS (glutamine synthetase); assay: Enzymatic activity of purified rice GS: kinetic parameters and glufosinate IC50; type: biochemical, rice (Oryza sativa); conditions: inhibition of rice GS by glufosinate
Excerpt: (§1) OsC, OsF, OsG, OsH, OsP, and OsY provided in Example 1, OR provided in Example 3, and rice GS mutant OsGR and wheat GS mutant TaGR provided in Example 2 were detected for their enzymatic kinetic parameter, and enzymatic kinetic parameter in the presence of glufosinate, using wild-type rice GS OsGS_WT and wild-type wheat GS TaGS_WT as controls according to the following method.
(§2) The nucleic acid sequences encoding the above mutants were each cloned into a prokaryotic expression vector pET32a, and the clone was verified by sequencing.
(§3) The mutant enzyme protein was purified with 6His by a standard method, and its concentration was determined with a protein concentration assay kit with Bradford method. The protein was stored in a protein storage solution.
(§4) ELIASA (Detielab, HBS-1096A), glufosinate, substrate sodium L-glutamate (CAS: 6106-04-3).
(§5) (1) The composition of a reaction solution for determination of enzymatic activity of glutamine synthetase were as follows: 100 mM Tris-HCl (pH 7.5), 10 mM ATP, 20 mM sodium L-glutamate, 30 mM hydroxylamine, 20 mM MgCl2. 100 μl of the reaction solution after mixed thoroughly was preheated at 35° C. for 5 min, and 10 μl of mutant protein solution (protein concentration of 200 μg/ml) was added to start the reaction. After reaction at 35° C. for 30 min, 110 μl of color developing solution (55 g/L FeCl3·6H2O, 20 g/L trichloroacetic acid, 2.1% concentrated hydrochloric acid) was added to terminate the reaction. The absorbance at 540 nm was measured.

[3] = biological target: wheat GS (glutamine synthetase); assay: Enzymatic activity of purified wheat GS: kinetic parameters and glufosinate IC50; type: biochemical, wheat (Triticum aestivum); conditions: inhibition of wheat GS by glufosinate; read-out: glufosinate resistance parameter IC50
Excerpt: as §1, §2, §3, §4
as §5, with “After reaction at 35° C. for 30 min, 110 μl of color developing solution (55 g/L FeCl3·6H2O, 20 g/L trichloroacetic acid, 2.1% concentrated hydrochloric acid) was added to terminate the reaction.” left out

B1: OR: rice GS mutant, H296R versus SEQ ID NO. 1 (SEQ ID NO. 32) (protein)
chain: MASLTDLVNLNLSDTTEKIIAEYIWIGGSGMDLRSKARTLSGPVTDPSKLPKWNYDGSSTGQAPGEDSEVILYPQAIFKDPFRKGNNILVMCDCYTPAGEPIPTNKRHNAAKIFSSPEVASEEPWYGIEQEYTLLQKDINWPLGWPVGGFPGPQGPYYCGIGADKSFGRDIVDSHYKACLYAGINISGINGEVMPGQWEFQVGPSVGISAGDQVWVARYILERITEIAGVVVSFDPKPIPGDWNGAGAHTNYSTKSMRNDGGYEIIKSAIEKLKLRHKEHISAYGEGNERRLTGRRETADINTFSWGVANRGASVRVGRETEQNGKGYFEDRRPASNMDPYIVTSMIAETTIIWKP
modifications: OR
growth of transformed GS-deficient E. coli (normal GS enzymatic activity) [1]: could normally grow | growth of transformed E. coli (glufosinate resistance) ([1]; medium containing 10 mM glufosinate): significantly superior to that of the wild type | growth of transformed E. coli (glufosinate resistance) ([1]; medium containing 20 mM glufosinate): significantly grew | growth of transformed E. coli (glufosinate resistance) ([1]; medium containing 50 mM glufosinate): still significantly grew | performance of transgenic rice seedlings after spraying glufosinate (rice (Nipponbare)): not significantly affected by glufosinate and continued to grow | glufosinate resistance parameter IC50 [2]: much higher than those of the wild-type controls

B2: OsGR: rice GS mutant, S59G and H296R in SEQ ID NO. 1 (SEQ ID NO. 22) (protein)
chain: MASLTDLVNLNLSDTTEKIIAEYIWIGGSGMDLRSKARTLSGPVTDPSKLPKWNYDGSGTGQAPGEDSEVILYPQAIFKDPFRKGNNILVMCDCYTPAGEPIPTNKRHNAAKIFSSPEVASEEPWYGIEQEYTLLQKDINWPLGWPVGGFPGPQGPYYCGIGADKSFGRDIVDSHYKACLYAGINISGINGEVMPGQWEFQVGPSVGISAGDQVWVARYILERITEIAGVVVSFDPKPIPGDWNGAGAHTNYSTKSMRNDGGYEIIKSAIEKLKLRHKEHISAYGEGNERRLTGRRETADINTFSWGVANRGASVRVGRETEQNGKGYFEDRRPASNMDPYIVTSMIAETTIIWKP
modifications: OsGR
growth of transformed E. coli (glufosinate resistance) ([1]; media containing 10 mM, 20 mM and 300 mM glufosinate): grew significantly | growth of transformed GS-deficient E. coli (normal GS enzymatic activity) [1]: could normally grow | growth of transformed E. coli (glufosinate resistance) ([1]; medium containing 300 mM glufosinate): grew significantly | glufosinate resistance parameter IC50 [2]: much higher than those of the wild-type controls

B3: TaGS_WT: wild-type wheat glutamine synthetase, SEQ ID NO. 2, control (protein, listed as Triticum aestivum)
chain: MALLTDLLNLDLTDSTEKIIAEYIWIGGSGMDLRSKARTLPGPVTDPSKLPKWNYDGSSTGQAPGEDSEVILYPQAIFKDPFRKGNNILVMCDCYTPAGVPIPTNKRYNAAKIFSNPDVAKEEPWYGIEQEYTLLQKDINWPLGWPVGGFPGPQGPYYCSIGADKSFGRDIVDSHYKACLFAGVNISGINGEVMPGQWEFQVGPTVGISAGDQVWVARYLLERITEIAGVVVTFDPKPIPGDWNGAGAHTNYSTESMRKDGGFKVIVDAVEKLKLKHKEHIAAYGEGNERRLTGKHETADINTFSWGVANRGASVRVGRETEQNGKGYFEDRRPASNMDPYVVTSMIAETTILWKP
growth of transformed E. coli (glufosinate resistance) ([1]; media containing 2 mM, 5 mM, 10 mM, and 20 mM glufosinate): could hardly grow | growth of transformed GS-deficient E. coli (normal GS enzymatic activity) [1]: could normally grow | IC50 [3]: 600 µM
